Molecular target: apolipoprotein E on the surface of very low-density lipoproteins (human) (UniProt P02649)
Experiment: AFM-based force spectroscopy; DENV C covalently attached to the AFM tip; VLDL adsorbed on freshly cleaved mica; TEE-KCl buffer pH 7.4 (20 mM Tris-HCl, 100 mM KCl, 1 mM EDTA, 1 mM EGTA); loading rate 4 nN/s; with or without rabbit anti-human APOE antibody (1 or 100 ug/L) or an isotype-matched control antibody

Chain of UniProt P02649 (P02649 19-317): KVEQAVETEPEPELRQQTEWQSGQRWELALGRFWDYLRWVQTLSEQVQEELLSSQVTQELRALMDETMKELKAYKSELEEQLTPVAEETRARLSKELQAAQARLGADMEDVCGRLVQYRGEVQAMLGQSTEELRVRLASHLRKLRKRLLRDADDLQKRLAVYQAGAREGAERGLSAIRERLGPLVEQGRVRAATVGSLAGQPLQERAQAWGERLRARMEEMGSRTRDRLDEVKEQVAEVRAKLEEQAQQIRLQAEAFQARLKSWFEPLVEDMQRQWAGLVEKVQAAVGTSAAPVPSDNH

Question: For “Dengue virus capsid (C) protein (natural protein)”, which rupture force, 1st Gaussian peak (DENV C-VLDL, no antibody) is on record?
Answer: Its rupture force, 1st Gaussian peak (DENV C-VLDL, no antibody) is 29.7 pN.

Question: What about the rupture force, 2nd Gaussian peak (DENV C-VLDL, no antibody) of the same substance?
Answer: Its rupture force, 2nd Gaussian peak (DENV C-VLDL, no antibody) is 52.1 pN.

Reference: PMC4498383
